# In article PMC8396674:
# Columns and labels:
# Test in all cases: AUC; sedimentation velocity, 0.25 mg/mL (14.7 µM) protein with 7-fold molar excess of TbCl3, 20 °C, 50,000 rpm, c(s) analysis
# [1] = biological target: gC1q domain of human otolin-1, natural variant Q426R (human)
# [2] = biological target: gC1q domain of human otolin-1, natural variant R339S (human)
# [3] = biological target: gC1q domain of human otolin-1 (hOtolC1q), wild type (human)
substance,measurement,setting,value
"gC1q domain of human otolin-1, natural variant Q426R (domain or fragment)",stoichiometry N,[1],3
"gC1q domain of human otolin-1, natural variant R339S (domain or fragment)",stoichiometry N,[2],3
"gC1q domain of human otolin-1 (hOtolC1q), wild type (domain or fragment)",stoichiometry N,[3],3
